# Measurements from publication PMC11726454.
# Molecular target: TLR4 human recombinant protein (HY-P73586, MCE) (human) (UniProt O00206)
# Assay: SPR
# Sequence of UniProt O00206 (O00206 24-631, one chain of several): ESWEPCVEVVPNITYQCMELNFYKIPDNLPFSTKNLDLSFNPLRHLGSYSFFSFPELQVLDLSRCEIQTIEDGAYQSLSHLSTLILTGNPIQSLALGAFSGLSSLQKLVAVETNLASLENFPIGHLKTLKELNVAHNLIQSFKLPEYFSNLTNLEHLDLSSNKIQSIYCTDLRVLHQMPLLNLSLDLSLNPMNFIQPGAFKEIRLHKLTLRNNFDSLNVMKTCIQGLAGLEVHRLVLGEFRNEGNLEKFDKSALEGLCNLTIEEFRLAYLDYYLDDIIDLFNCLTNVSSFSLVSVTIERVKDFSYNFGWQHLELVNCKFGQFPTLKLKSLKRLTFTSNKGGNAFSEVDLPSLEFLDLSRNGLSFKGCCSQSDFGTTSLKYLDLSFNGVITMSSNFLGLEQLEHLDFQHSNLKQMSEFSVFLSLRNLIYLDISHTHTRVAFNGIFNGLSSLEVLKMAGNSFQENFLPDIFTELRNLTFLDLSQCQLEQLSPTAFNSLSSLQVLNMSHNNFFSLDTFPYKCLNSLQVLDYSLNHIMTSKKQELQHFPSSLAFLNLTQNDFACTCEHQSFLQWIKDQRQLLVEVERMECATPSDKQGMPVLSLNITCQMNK
substance,measurement,value
"PBP1B without the GST tag, non-transmembrane domain (domain or fragment)",Kd,0.269 nM
